In article PMC7020083:

B1: human CXCL13 (ligand)
chain: VLEVYYTSLRCRCVQESSVFIPRRFIDRIQILPRGNGCPRKEIIVWKKNKSIVCVDPQAEWIQRMMEVLRKRSSSTLPVPVFKRKIP

Molecular target: hTNFR2-SCP3-Fc (human | ectromelia virus) (UniProt P20333)
Experiment: SPR; […], single-cycle; 1:1 Langmuir fit

UniProt P20333, sequence (P20333 23-257 limits assumed): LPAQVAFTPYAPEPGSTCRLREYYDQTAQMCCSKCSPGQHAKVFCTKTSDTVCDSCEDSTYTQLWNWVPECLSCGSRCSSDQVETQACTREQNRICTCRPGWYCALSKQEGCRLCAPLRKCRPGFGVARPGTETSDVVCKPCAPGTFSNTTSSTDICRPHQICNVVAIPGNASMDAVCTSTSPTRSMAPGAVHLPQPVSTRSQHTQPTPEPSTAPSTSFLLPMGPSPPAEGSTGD

| Molecule | Kd [nM] | koff [s⁻¹] | kon [M⁻¹ s⁻¹] |
| --- | --- | --- | --- |
| human CCL25 (from UniProt O15444 24-150) (ligand) | 6.75 | 0.00374 | 554000 |
| human CXCL12 (from UniProt P48061 22-93) (ligand) | 49.8 | 0.00825 | 166000 |
| B1 | 21.4 | 0.00155 | 72000 |
